For 167 variants, self-cleavage results are on record in the RNAGym collection of RNA variant scans (doi:10.7554/elife.80360).

The chains are these.
B1: HDV Ribozyme (parent)
chain: GGCCGGCAUGGUCCCAGCCUCCUCGCUGGCGCCGGCUGGGCAACAUUCCGAGGGGACCGUCCCCUCGGUAAUGGCGAAUGGGACCCA

The variants in the data set derive from B1. The experiment in a line: self-cleavage, relative activity (ratio to wild type); higher = more cleavage; co-transcriptional.
As to G17U G38C, the self-cleavage turned out to be 0.0997.

Turning to C41U C48G, the self-cleavage stood at 0.955.

On to C3G G35C, for which the self-cleavage came to 1.48.

Take C14U U23A: the self-cleavage was found to be 1.04.

G1A C22G: the self-cleavage was determined as 0.0978.

For A45C G80U, the self-cleavage worked out at 0.0678.

As for C26U C30G, the self-cleavage was 0.0941.

As for G31U G34C, the self-cleavage came out at 0.117.

Take G53A U79A: the self-cleavage was determined as 0.814.

Regarding G1A C58U, the self-cleavage stood at 0.158.

Consider A8U U23C, for which the self-cleavage worked out at 0.532.

For C19A G54C, the self-cleavage came to 0.0817.

Take C3U G74A: the self-cleavage was determined as 0.245.

With G29A G31U, the self-cleavage turned out to be 0.0272.

Regarding G40A A42G, the self-cleavage was 0.475.

Turning to G5A G67U, the self-cleavage came to 0.17.

For the variant A45G U60A, the self-cleavage amounted to 0.866.

As for G38A C49U, the self-cleavage is 0.119.

Turning to C15A C61U, the self-cleavage came out at 0.752.

Consider G6U C62G, for which the self-cleavage came out at 0.332.

On to G1U A77U, for which the self-cleavage came out at 0.146.

As to C33A U37C, the self-cleavage worked out at 0.469.

As to G82C, the self-cleavage was 0.259.

As to G1U C64A, the self-cleavage turned out to be 0.453.

Regarding U12A A51G, the self-cleavage came to 0.196.

On to G1A U23A, for which the self-cleavage came out at 0.217.

Turning to C32A A70U, the self-cleavage came to 0.0852.

In the case of C61U G82A, the self-cleavage amounted to 0.325.

Consider G38U A51C, for which the self-cleavage was 0.246.

On to A71G A83C, for which the self-cleavage stood at 0.415.

As to U9A G55U, the self-cleavage worked out at 0.895.

In the case of C58A G68C, the self-cleavage worked out at 1.03.

C24G G39A: the self-cleavage stood at 0.0845.

As for C33G U72C, the self-cleavage stood at 0.115.

For U27G A71U, the self-cleavage worked out at 0.598.

On to G11A G54A, for which the self-cleavage is 0.371.

As to U20C G67A, the self-cleavage came out at 0.17.

As to G5A G68A, the self-cleavage is 0.164.

With C3U A78G, the self-cleavage came to 0.446.

Turning to U23A U79G, the self-cleavage stood at 0.665.

Turning to A42G G74A, the self-cleavage came to 0.0396.

With G55C G59C, the self-cleavage was 0.867.

With C15G A87U, the self-cleavage was 0.475.

For G17A C63G, the self-cleavage amounted to 0.633.

As to C22A U23A, the self-cleavage turned out to be 0.224.

For C61A G82A, the self-cleavage stood at 0.46.

Regarding C26G A45G, the self-cleavage came to 1.04.

As to U27A C49G, the self-cleavage turned out to be 0.617.

Take G11C C22A: the self-cleavage was 0.0898.

A43G U72C: the self-cleavage was 0.434.

Regarding C18U C86G, the self-cleavage was 0.704.

Take C32G U60C: the self-cleavage came to 0.0723.

In the case of G2A U72C, the self-cleavage came to 0.0455.

C7U G76U: the self-cleavage came out at 0.755.

Take G53A C62G: the self-cleavage was determined as 0.511.

In the case of C61U G81A, the self-cleavage was determined as 0.44.

Take C58U U69A: the self-cleavage came out at 0.89.

U9A A71C: the self-cleavage came to 1.05.

For U23C C36U, the self-cleavage came to 0.365.

For the variant G17C U46G, the self-cleavage was found to be 0.0923.

Consider C32A G82A, for which the self-cleavage was determined as 0.0361.

For the variant G17U G81C, the self-cleavage was 0.197.

On to C44U A56C, for which the self-cleavage stood at 1.04.

On to G28A C36A, for which the self-cleavage worked out at 0.203.

For G10C G34A, the self-cleavage was determined as 0.166.

A8U A43G: the self-cleavage worked out at 0.578.

Consider G25A G67A, for which the self-cleavage is 0.299.

Regarding U37A U47C, the self-cleavage came out at 0.289.

In the case of G38U C85A, the self-cleavage worked out at 0.205.

With U20C G80A, the self-cleavage came out at 0.0496.

With G55C C62G, the self-cleavage is 1.06.

C14U C62A: the self-cleavage turned out to be 1.06.

As for C14G C32U, the self-cleavage amounted to 0.196.

For G53C U79C, the self-cleavage was found to be 0.47.

Turning to G2U U20C, the self-cleavage turned out to be 0.

Regarding G2C C13U, the self-cleavage came out at 0.153.

On to A51G G59C, for which the self-cleavage came to 0.895.

In the case of C21U C36U, the self-cleavage worked out at 0.218.

Turning to U20C C49A, the self-cleavage is 0.172.

G5C C84A: the self-cleavage turned out to be 0.142.

Take C44U U60A: the self-cleavage was 0.594.

For A42U A78U, the self-cleavage is 0.284.

A56C C57G: the self-cleavage came to 0.978.

With G17C A83C, the self-cleavage is 0.244.

Regarding G76A, the self-cleavage was found to be 1.04.

For the variant A71C G76U, the self-cleavage stood at 0.91.

In the case of G59A G73C, the self-cleavage stood at 0.394.

C15A C44U: the self-cleavage came out at 0.426.

As to C4A C49G, the self-cleavage was 0.302.

Regarding U20A C64A, the self-cleavage was 0.113.

For G55U U72A, the self-cleavage is 0.648.

For C57U U60A, the self-cleavage was determined as 1.07.

As for A77U C86A, the self-cleavage amounted to 0.831.

On to G2C G11C, for which the self-cleavage was 0.155.

C4U C7U: the self-cleavage was 0.457.

Take A51C A77G: the self-cleavage is 0.643.

For A8U C64U, the self-cleavage came to 1.11.

Consider C4G G67U, for which the self-cleavage worked out at 0.227.

In the case of C32U U60G, the self-cleavage amounted to 1.02.

In the case of C58U C84G, the self-cleavage amounted to 0.665.

For U60C C84U, the self-cleavage was 0.918.

Take G53C G80U: the self-cleavage was determined as 0.293.

Take A56G G73A: the self-cleavage is 0.749.

Turning to A8C A83U, the self-cleavage stood at 0.237.

For C15A G25A, the self-cleavage was 0.0504.

C15G A16G: the self-cleavage came to 0.665.

In the case of G5A G10A, the self-cleavage is 0.203.

As to C32G A71U, the self-cleavage came out at 0.115.

In the case of G11U G28U, the self-cleavage was determined as 0.0396.

Consider C19A G67U, for which the self-cleavage worked out at 0.281.

For C3U G6A, the self-cleavage turned out to be 0.245.

Consider G2A G5A, for which the self-cleavage turned out to be 0.0343.

Turning to C66G A87C, the self-cleavage came out at 0.857.

Consider G54U C85U, for which the self-cleavage was 1.02.

On to U20C U65A, for which the self-cleavage worked out at 0.166.

For the variant G2A C32U, the self-cleavage is 0.194.

As to C24U C41A, the self-cleavage turned out to be 0.608.

With A8C G81A, the self-cleavage amounted to 0.151.

For the variant U27G C36G, the self-cleavage turned out to be 0.0665.

Take A45U A87C: the self-cleavage was 0.783.

On to G31A U47G, for which the self-cleavage was found to be 0.192.

Regarding C26G C57U, the self-cleavage is 1.02.

Turning to G17U A51G, the self-cleavage was 0.34.

Regarding G39C U69A, the self-cleavage came out at 0.17.

For the variant U65A C66A, the self-cleavage worked out at 1.08.

In the case of U37G C63A, the self-cleavage came out at 0.123.

Consider C49G U60A, for which the self-cleavage was 0.923.

For G38C C61G, the self-cleavage turned out to be 0.219.

Take G38C G55U: the self-cleavage was 0.193.

As for C19U C26U, the self-cleavage came out at 0.718.

With C33A C58U, the self-cleavage turned out to be 0.142.

With U9C U72A, the self-cleavage came out at 0.587.

With C15U C36A, the self-cleavage turned out to be 0.208.

In the case of C3A G80C, the self-cleavage was determined as 0.111.

Regarding G34A C62A, the self-cleavage was found to be 0.0692.

Turning to G52U A83U, the self-cleavage was 0.494.

G6U G73C: the self-cleavage stood at 0.266.

Consider G11U C85U, for which the self-cleavage is 0.767.

Consider C24U U37A, for which the self-cleavage was determined as 0.18.

In the case of G1A C64G, the self-cleavage is 0.095.

Turning to A71G G80A, the self-cleavage came to 0.288.

Turning to C18U A87U, the self-cleavage is 0.853.

C7A C58A: the self-cleavage was found to be 0.772.

As to U60A A71G, the self-cleavage was determined as 1.12.

C58G G76U: the self-cleavage was 1.11.

On to C44G A71G, for which the self-cleavage stood at 0.646.

Take U27G G67U: the self-cleavage is 0.764.

Consider C41A A42U, for which the self-cleavage was found to be 0.743.

As for G39C G59C, the self-cleavage came out at 0.162.

For the variant G1U, the self-cleavage amounted to 0.391.

Take C33G C84A: the self-cleavage amounted to 0.231.

On to G10A C26A, for which the self-cleavage stood at 0.906.

For U69G G82U, the self-cleavage was 0.208.

As for A43U G50A, the self-cleavage amounted to 0.47.

Turning to C19G G55A, the self-cleavage amounted to 0.0346.

With C61G G82U, the self-cleavage stood at 0.271.

As for C75A G81U, the self-cleavage was 0.155.

Regarding U20C A42U, the self-cleavage turned out to be 0.0978.

G17C C84G: the self-cleavage was 0.18.

On to G67C A78U, for which the self-cleavage came to 0.225.

G53A G67A: the self-cleavage turned out to be 1.02.

Take C33U C66A: the self-cleavage is 0.774.

As to U27C G54A, the self-cleavage was determined as 0.598.

As to A56C G81A, the self-cleavage is 0.415.

As to G54U U65A, the self-cleavage was 0.513.

With A16U G35C, the self-cleavage amounted to 0.128.

Regarding G29U U37G, the self-cleavage is 0.0723.
